Columns and labels:
Test in all cases: MST; RED-tris-NTA labelled 6xHis-Rtt105 at constant 100 nM, serial dilutions of RPA complex from 200 to 0.0058 nM; 1x PBS with 0.05% Tween 20; 50 min at room temperature; Monolith NT.115
Settings in all cases: both partners purified
[1] = molecular target: T1, WT RPA complex (yeast, UniProt P22336 1-621; P26754 1-273; P26755 1-122)
T1 construct: Rfa1, largest subunit of yeast RPA; Rfa2, subunit of yeast RPA; Rfa3, subunit of yeast RPA; the MST methods say only 'RPA complex'; source: purified from yeast cells; copies: + +
T1 sequence (P22336 whole entry, chain 1 of 3): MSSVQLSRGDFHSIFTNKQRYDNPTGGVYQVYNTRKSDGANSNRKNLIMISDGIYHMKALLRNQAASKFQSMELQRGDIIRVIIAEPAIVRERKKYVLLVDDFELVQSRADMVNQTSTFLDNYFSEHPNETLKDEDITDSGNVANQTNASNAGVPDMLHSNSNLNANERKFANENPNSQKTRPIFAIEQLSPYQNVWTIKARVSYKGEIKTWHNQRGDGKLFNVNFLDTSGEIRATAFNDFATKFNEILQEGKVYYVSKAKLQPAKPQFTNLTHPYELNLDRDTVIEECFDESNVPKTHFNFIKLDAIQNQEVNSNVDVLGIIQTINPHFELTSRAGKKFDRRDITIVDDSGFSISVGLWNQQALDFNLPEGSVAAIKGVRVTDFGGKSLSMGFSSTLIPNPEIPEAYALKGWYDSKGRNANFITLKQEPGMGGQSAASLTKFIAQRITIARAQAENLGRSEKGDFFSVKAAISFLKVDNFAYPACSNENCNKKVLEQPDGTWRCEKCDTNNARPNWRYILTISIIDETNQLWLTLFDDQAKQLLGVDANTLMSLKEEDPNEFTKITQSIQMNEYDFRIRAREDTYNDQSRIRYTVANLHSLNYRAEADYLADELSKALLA
T1 sequence (P26754 whole entry, chain 2 of 3): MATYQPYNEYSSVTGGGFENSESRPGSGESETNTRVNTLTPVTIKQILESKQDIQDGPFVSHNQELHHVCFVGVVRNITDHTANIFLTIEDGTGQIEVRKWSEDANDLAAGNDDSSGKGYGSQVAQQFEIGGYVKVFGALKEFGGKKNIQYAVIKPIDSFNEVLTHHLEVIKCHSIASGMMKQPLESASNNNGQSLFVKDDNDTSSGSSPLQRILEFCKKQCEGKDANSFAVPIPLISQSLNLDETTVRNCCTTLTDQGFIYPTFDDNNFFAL
T1 sequence (P26755 whole entry, chain 3 of 3): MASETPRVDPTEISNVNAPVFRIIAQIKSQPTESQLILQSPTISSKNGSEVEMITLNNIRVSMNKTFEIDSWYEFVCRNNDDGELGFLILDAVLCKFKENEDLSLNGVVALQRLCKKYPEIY

[2] = molecular target: T2, 4KR RPA complex (yeast, UniProt P22336 1-621; P26754 1-273; P26755 1-122, K259R | K427R | K463R | K494R)
T2 construct: Rfa1, largest subunit of yeast RPA, four lysines mutated to arginine; Rfa2, subunit of yeast RPA; Rfa3, subunit of yeast RPA; also called 4KR mutant RPA; source: purified from yeast cells; copies: + +
T2 sequence (P22336 whole entry K259R/K427R/K463R/K494R, chain 1 of 3): as the sequence (P22336 whole entry, chain 1 of 3) above, with K259R, K427R, K463R, K494R counted along it
T2 sequence (P26754 whole entry, chain 2 of 3): as the sequence (P26754 whole entry, chain 2 of 3) above
T2 sequence (P26755 whole entry, chain 3 of 3): as the sequence (P26755 whole entry, chain 3 of 3) above

[3] = molecular target: T3, 4KQ RPA complex (yeast, UniProt P22336 1-621; P26754 1-273; P26755 1-122, K259Q | K427Q | K463Q | K494Q)
T3 construct: Rfa1, largest subunit of yeast RPA, four lysines mutated to glutamine; Rfa2, subunit of yeast RPA; Rfa3, subunit of yeast RPA; also called 4KQ mutant RPA; source: purified from yeast cells; copies: + +
T3 sequence (P22336 whole entry K259Q/K427Q/K463Q/K494Q, chain 1 of 3): as the sequence (P22336 whole entry, chain 1 of 3) above, with K259Q, K427Q, K463Q, K494Q counted along it
T3 sequence (P26754 whole entry, chain 2 of 3): as the sequence (P26754 whole entry, chain 2 of 3) above
T3 sequence (P26755 whole entry, chain 3 of 3): as the sequence (P26755 whole entry, chain 3 of 3) above

Kd [1]: ~1.06 nM | Kd [2]: ~1.17 nM | Kd [3]: ~0.51 nM
B1: 6xHis-Rtt105 (natural protein, yeast, UniProt P40063 1-208, looked up)
chain: MYSNHNLNSDDCCFDWNEEKAAELQRTGVSFDRSLTPQSLRTSTRRLSEENKQQSGTMHIDTSPSVVSDIISSRRDRSQDFFGPHSSSPIAPSERQRADQRSRLESMRLTRRRDKMTKVRGGLEKMEEMIMQGEHLREMQRLKQEAQKNALPSDMAEYMEWQNNEDLEDDELLAFIEKQETYKNELEHFLNNANKNVYENNSYPNSHT
modifications: labelled with a RED-tris-NTA protein labelling kit
notes: Rtt105, yeast RPA chaperone protein
